Reference: CN101001872A (MACROGENICS INC, dated 2007)
Blank lines part the entries; values can stand above or below the molecule they belong to.

Tests used:
[1] = target: T1, 细胞表面的人FcγRIIB (CD32B) (human, UniProt P31994 43-310); assay: two-colour FACS on CHO cells with full-length FcγRIIB, after mouse IgG1 isotype control
T1 construct: whole, on cells; also called huFcγRIIB; CHO/IIB
T1 sequence (looked up): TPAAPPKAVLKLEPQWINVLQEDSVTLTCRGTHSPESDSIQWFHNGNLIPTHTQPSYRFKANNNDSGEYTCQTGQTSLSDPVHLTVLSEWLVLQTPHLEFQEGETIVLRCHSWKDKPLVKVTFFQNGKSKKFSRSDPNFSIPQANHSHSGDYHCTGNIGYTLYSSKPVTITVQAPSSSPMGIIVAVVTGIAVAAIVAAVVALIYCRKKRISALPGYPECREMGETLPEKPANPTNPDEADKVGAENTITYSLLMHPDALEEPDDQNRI

[2] = target: T1, 细胞表面的人FcγRIIB (CD32B); assay: cell-based or functional assay
[3] = target: T1, 细胞表面的人FcγRIIB (CD32B); assay: two-colour FACS on CHO cells with full-length FcγRIIB
[4] = target: T2, THP1单核细胞株上的CD32A (H131形式) (human, UniProt P12318 34-317); assay: FACS on THP-1 cells
T2 construct: whole, on cells; also called THP-I
T2 sequence (looked up): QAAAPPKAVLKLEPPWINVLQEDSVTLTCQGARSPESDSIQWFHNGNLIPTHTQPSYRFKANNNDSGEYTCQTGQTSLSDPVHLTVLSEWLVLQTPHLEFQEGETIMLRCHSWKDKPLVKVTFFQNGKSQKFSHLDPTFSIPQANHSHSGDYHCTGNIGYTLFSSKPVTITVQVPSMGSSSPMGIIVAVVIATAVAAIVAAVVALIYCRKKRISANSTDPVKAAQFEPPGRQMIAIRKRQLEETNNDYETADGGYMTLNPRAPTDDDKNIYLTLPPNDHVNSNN

[5] = target: T3, 可溶性单体形式的人CD32A-R131 (human, UniProt P12318 34-217); assay: SPR (BIAcore 3000), antibody captured by goat anti-mouse F(ab′)2, soluble monomeric receptor injected
T3 construct: extracellular domain
T3 sequence (looked up): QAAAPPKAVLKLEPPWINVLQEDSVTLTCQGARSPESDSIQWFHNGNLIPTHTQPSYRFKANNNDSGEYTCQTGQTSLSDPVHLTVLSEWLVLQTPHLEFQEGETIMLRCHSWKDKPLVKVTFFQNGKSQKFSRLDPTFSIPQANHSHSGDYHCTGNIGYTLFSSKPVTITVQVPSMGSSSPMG

[6] = target: FcγRIIB (ELISA包被, 哺乳动物系统产生) (human) (UniProt P31994); assay: direct ELISA, receptor-coated plate
[7] = target: T4, 可溶性单体形式的人CD32B (293H细胞中表达的可溶性细胞外结构域) (human, UniProt P31994 43-217); assay: SPR (BIAcore 3000), captured antibody, soluble monomeric receptor injected
T4 construct: extracellular domain; also called FcγRIIB
T4 sequence (looked up): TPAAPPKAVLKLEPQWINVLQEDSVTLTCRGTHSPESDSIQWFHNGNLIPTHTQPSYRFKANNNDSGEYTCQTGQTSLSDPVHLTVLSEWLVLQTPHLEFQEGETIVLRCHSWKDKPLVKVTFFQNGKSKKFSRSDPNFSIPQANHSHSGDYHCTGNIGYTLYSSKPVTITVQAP

[8] = target: T5, 人外周血白细胞上的huFcγRIIA (human, UniProt P12318 34-317); assay: FACS on human peripheral blood leukocytes
T5 construct: whole, on cells; also called FcγRIIA同种型
T5 sequence (looked up): T2 sequence (looked up)

percent of cells labelled [1]: 60 %
Molecule: 聚集的生物素化人IgG (ligand)

ADCC [2]: > 10 ng/mL
Molecule: 嵌合的抗CD32B抗体ch2B6 (antibody)

binding result [3]: binds
binding result [4]: no binding
binding result [5]: no binding (tested: 100nM可溶性受体)
fold binding against the commercial antibodies AT10, FL18.26 and IV.3 [6]: < 4.5 倍
binding result [7]: binds
binding result [8]: no binding
B1: 由克隆2B6产生的小鼠单克隆抗体 (ATCC PTA-4591) (antibody)
heavy: QVQLQQPVTELVRPGASVMLSCKASDYPFTNYWIHWVKQRPGQGLEWIGVIDPSDTYPNYNKKFKGKATLTVVVSSSTAYMQLSSLTSDDSAVYYCARNGDSDYYSGMDYWGQGTSVTVSS
light: DILLTQSPAILSVSPGERVSFSCRTSQSIGTNIHWYQQRTNGFPRLLIKNVSESISGIPSRFSGSGSGTDFILSINSVESEDIADYYCQQSNTWPFTFGGGTKLEIK
notes: The entries may hold only the variable regions; also called 2B6抗体; m2B6
